The record followed here is patent US20140087995A1 (published 2014).

Numbered stars: 1 amine (or outer) side, 2 acyl side, 3 side chain; on linkers, the order of the positions; unused ones are H or OH. Bridge positions count the residues as written; N and C are the ends. Side chains are listed from the residue outwards. Ends that are not written are not given here. * marks the point of attachment. C20 diacid = O=C(O)CCCCCCCCCCCCCCCCCCC(=O)*; γGlu = O=C(O)[C@H](CCC(=O)[*:2])N[*:1]; AEEA = NCCOCCOCC(=O)O

Assay [1] deals with T1, human calcitonin receptor (human, UniProt P30988 25-474).
T1 construct: whole, on cells; Assayed as cell membranes of BHK tk'ts 13 cells stably transfected with the human calcitonin receptor (Assay VII); also called hCTR; hCT
T1 sequence (looked up): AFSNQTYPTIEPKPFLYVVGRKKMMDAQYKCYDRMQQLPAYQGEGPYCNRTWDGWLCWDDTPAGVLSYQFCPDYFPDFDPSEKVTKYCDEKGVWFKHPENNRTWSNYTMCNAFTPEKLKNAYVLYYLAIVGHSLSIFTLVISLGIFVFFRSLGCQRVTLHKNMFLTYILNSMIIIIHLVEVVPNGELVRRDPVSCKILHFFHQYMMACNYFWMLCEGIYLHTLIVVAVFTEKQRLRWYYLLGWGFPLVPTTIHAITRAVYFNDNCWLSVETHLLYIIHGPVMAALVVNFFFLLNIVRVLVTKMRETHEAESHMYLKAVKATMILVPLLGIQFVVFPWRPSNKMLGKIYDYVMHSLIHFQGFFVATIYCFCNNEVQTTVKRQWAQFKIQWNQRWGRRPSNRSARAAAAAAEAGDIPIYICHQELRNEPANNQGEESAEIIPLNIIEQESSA
The assay can be described thus: IC50 at hCTR divided by IC50 at hAmylin-R (SPA competition assays V and VII). The method in brief: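 IC₅₀ values were derived by one-site competition analysis of SPA counts. Cell membranes (35 ng/μL) with SPA beads were incubated with test compounds for 120 min at 25° C in Hepes buffer, pH 7.4, containing CaCl2, MgCl₂, OA and Tween20.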

Assay [2] addresses T1, human calcitonin receptor. Description: SPA competition vs 125I-calcitonin, membranes of BHK cells with human calcitonin receptor (Assay VII). The method in brief: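 BHK hCTR membranes 35 ng/μL + SPA beads 0.05 mg/well; buffer 50 mM Hepes pH 7.4, 1 mM CaCl2, 5 mM MgCl₂, 0.1% OA, 0.02% Tween20. 120 min, 25° C., shaking. Scintillation count; IC50 by one-site binding competition.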

B1: N^ε1-[2-[2-[2-[[(4S)-4-carboxy-4-(19-carboxynonadecanoylamino)butanoyl]amino]ethoxy]ethoxy]acetyl]-[His14,Arg17,Pro21,Pro27,Arg34]-h-amylin (peptide)
peptide: K([AEEA-γGlu-C20 diacid])CNTATCATQRLAHFLRHSSPNFGAIPSSTNVGRNTY-NH2
modifications: disulfide 2-7; N-terminus assumed
SMILES: CC[C@H](C)[C@H](NC(=O)[C@H](C)NC(=O)CNC(=O)[C@H](Cc1ccccc1)NC(=O)[C@H](CC(N)=O)NC(=O)[C@@H]1CCCN1C(=O)[C@H](CO)NC(=O)[C@H](CO)NC(=O)[C@H](Cc1c[nH]cn1)NC(=O)[C@H](CCCNC(=N)N)NC(=O)[C@H](CC(C)C)NC(=O)[C@H](Cc1ccccc1)NC(=O)[C@H](Cc1c[nH]cn1)NC(=O)[C@H](C)NC(=O)[C@H](CC(C)C)NC(=O)[C@H](CCCNC(=N)N)NC(=O)[C@H](CCC(N)=O)NC(=O)[C@@H](NC(=O)[C@H](C)NC(=O)[C@@H]1CSSC[C@H](NC(=O)[C@@H](N)CCCCNC(=O)COCCOCCNC(=O)CC[C@H](NC(=O)CCCCCCCCCCCCCCCCCCC(=O)O)C(=O)O)C(=O)N[C@@H](CC(N)=O)C(=O)N[C@@H]([C@@H](C)O)C(=O)N[C@@H](C)C(=O)N[C@@H]([C@@H](C)O)C(=O)N1)[C@@H](C)O)C(=O)N1CCC[C@H]1C(=O)N[C@@H](CO)C(=O)N[C@@H](CO)C(=O)N[C@H](C(=O)N[C@@H](CC(N)=O)C(=O)N[C@H](C(=O)NCC(=O)N[C@@H](CCCNC(=N)N)C(=O)N[C@@H](CC(N)=O)C(=O)N[C@H](C(=O)N[C@@H](Cc1ccc(O)cc1)C(N)=O)[C@@H](C)O)C(C)C)[C@@H](C)O
notes: also called compound 84
For the molecule B1, the “Ratio hCT/hAmylin binding” value in assay [1] was determined as 120. The IC50 in assay [2] turned out to be 88.9 nM.

B2: N^ε1-[2-[2-[2-[[(4S)-4-carboxy-4-(19-carboxynonadecanoylamino)butanoyl]amino]ethoxy]ethoxy]acetyl]-[His14,Arg17,Pro21,Pro27,Pro34]-h-amylin (peptide)
peptide: K([AEEA-γGlu-C20 diacid])CNTATCATQRLAHFLRHSSPNFGAIPSSTNVGPNTY-NH2
modifications: disulfide 2-7; N-terminus assumed
SMILES: CC[C@H](C)[C@H](NC(=O)[C@H](C)NC(=O)CNC(=O)[C@H](Cc1ccccc1)NC(=O)[C@H](CC(N)=O)NC(=O)[C@@H]1CCCN1C(=O)[C@H](CO)NC(=O)[C@H](CO)NC(=O)[C@H](Cc1c[nH]cn1)NC(=O)[C@H](CCCNC(=N)N)NC(=O)[C@H](CC(C)C)NC(=O)[C@H](Cc1ccccc1)NC(=O)[C@H](Cc1c[nH]cn1)NC(=O)[C@H](C)NC(=O)[C@H](CC(C)C)NC(=O)[C@H](CCCNC(=N)N)NC(=O)[C@H](CCC(N)=O)NC(=O)[C@@H](NC(=O)[C@H](C)NC(=O)[C@@H]1CSSC[C@H](NC(=O)[C@@H](N)CCCCNC(=O)COCCOCCNC(=O)CC[C@H](NC(=O)CCCCCCCCCCCCCCCCCCC(=O)O)C(=O)O)C(=O)N[C@@H](CC(N)=O)C(=O)N[C@@H]([C@@H](C)O)C(=O)N[C@@H](C)C(=O)N[C@@H]([C@@H](C)O)C(=O)N1)[C@@H](C)O)C(=O)N1CCC[C@H]1C(=O)N[C@@H](CO)C(=O)N[C@@H](CO)C(=O)N[C@H](C(=O)N[C@@H](CC(N)=O)C(=O)N[C@H](C(=O)NCC(=O)N1CCC[C@H]1C(=O)N[C@@H](CC(N)=O)C(=O)N[C@H](C(=O)N[C@@H](Cc1ccc(O)cc1)C(N)=O)[C@@H](C)O)C(C)C)[C@@H](C)O
notes: also called compound 68
Consider B2, for which the “Ratio hCT/hAmylin binding” value in assay [1] is 64.4. Also, the concentration for half-maximal inhibition (IC50) in assay [2] was 5.66 nM.

B3: N^ε1-[2-[2-[2-[[(4S)-4-carboxy-4-(19-carboxynonadecanoylamino)butanoyl]amino]ethoxy]ethoxy]acetyl]-[His14,Arg17,Pro21,Pro27,Pro31]-h-amylin (peptide)
peptide: K([AEEA-γGlu-C20 diacid])CNTATCATQRLAHFLRHSSPNFGAIPSSTPVGSNTY-NH2
modifications: disulfide 2-7; N-terminus assumed
SMILES: CC[C@H](C)[C@H](NC(=O)[C@H](C)NC(=O)CNC(=O)[C@H](Cc1ccccc1)NC(=O)[C@H](CC(N)=O)NC(=O)[C@@H]1CCCN1C(=O)[C@H](CO)NC(=O)[C@H](CO)NC(=O)[C@H](Cc1c[nH]cn1)NC(=O)[C@H](CCCNC(=N)N)NC(=O)[C@H](CC(C)C)NC(=O)[C@H](Cc1ccccc1)NC(=O)[C@H](Cc1c[nH]cn1)NC(=O)[C@H](C)NC(=O)[C@H](CC(C)C)NC(=O)[C@H](CCCNC(=N)N)NC(=O)[C@H](CCC(N)=O)NC(=O)[C@@H](NC(=O)[C@H](C)NC(=O)[C@@H]1CSSC[C@H](NC(=O)[C@@H](N)CCCCNC(=O)COCCOCCNC(=O)CC[C@H](NC(=O)CCCCCCCCCCCCCCCCCCC(=O)O)C(=O)O)C(=O)N[C@@H](CC(N)=O)C(=O)N[C@@H]([C@@H](C)O)C(=O)N[C@@H](C)C(=O)N[C@@H]([C@@H](C)O)C(=O)N1)[C@@H](C)O)C(=O)N1CCC[C@H]1C(=O)N[C@@H](CO)C(=O)N[C@@H](CO)C(=O)N[C@H](C(=O)N1CCC[C@H]1C(=O)N[C@H](C(=O)NCC(=O)N[C@@H](CO)C(=O)N[C@@H](CC(N)=O)C(=O)N[C@H](C(=O)N[C@@H](Cc1ccc(O)cc1)C(N)=O)[C@@H](C)O)C(C)C)[C@@H](C)O
notes: also called compound 61
On to B3, for which, in assay [1], the “Ratio hCT/hAmylin binding” value turned out to be 66.7. Also, the IC50 in assay [2] was 8.11 nM.

B4: N^ε1-[2-[2-[2-[[(4S)-4-carboxy-4-(19-carboxynonadecanoylamino)butanoyl]amino]ethoxy]ethoxy]acetyl]-[His14,Arg17,Pro21,Pro27,His34]-h-amylin (peptide)
peptide: K([AEEA-γGlu-C20 diacid])CNTATCATQRLAHFLRHSSPNFGAIPSSTNVGHNTY-NH2
modifications: disulfide 2-7; N-terminus assumed
SMILES: CC[C@H](C)[C@H](NC(=O)[C@H](C)NC(=O)CNC(=O)[C@H](Cc1ccccc1)NC(=O)[C@H](CC(N)=O)NC(=O)[C@@H]1CCCN1C(=O)[C@H](CO)NC(=O)[C@H](CO)NC(=O)[C@H](Cc1c[nH]cn1)NC(=O)[C@H](CCCNC(=N)N)NC(=O)[C@H](CC(C)C)NC(=O)[C@H](Cc1ccccc1)NC(=O)[C@H](Cc1c[nH]cn1)NC(=O)[C@H](C)NC(=O)[C@H](CC(C)C)NC(=O)[C@H](CCCNC(=N)N)NC(=O)[C@H](CCC(N)=O)NC(=O)[C@@H](NC(=O)[C@H](C)NC(=O)[C@@H]1CSSC[C@H](NC(=O)[C@@H](N)CCCCNC(=O)COCCOCCNC(=O)CC[C@H](NC(=O)CCCCCCCCCCCCCCCCCCC(=O)O)C(=O)O)C(=O)N[C@@H](CC(N)=O)C(=O)N[C@@H]([C@@H](C)O)C(=O)N[C@@H](C)C(=O)N[C@@H]([C@@H](C)O)C(=O)N1)[C@@H](C)O)C(=O)N1CCC[C@H]1C(=O)N[C@@H](CO)C(=O)N[C@@H](CO)C(=O)N[C@H](C(=O)N[C@@H](CC(N)=O)C(=O)N[C@H](C(=O)NCC(=O)N[C@@H](Cc1c[nH]cn1)C(=O)N[C@@H](CC(N)=O)C(=O)N[C@H](C(=O)N[C@@H](Cc1ccc(O)cc1)C(N)=O)[C@@H](C)O)C(C)C)[C@@H](C)O
notes: also called compound 80
With B4, in assay [1], the “Ratio hCT/hAmylin binding” value worked out at 68.1. The half-maximal inhibitory concentration (IC50) in assay [2] is 19.8 nM.

B5: N^ε1-[2-[2-[2-[[(4S)-4-carboxy-4-(19-carboxynonadecanoylamino)butanoyl]amino]ethoxy]ethoxy]acetyl]-[Lys14,Arg17,Pro21,Pro27,Pro31]-h-amylin (peptide)
peptide: K([AEEA-γGlu-C20 diacid])CNTATCATQRLAKFLRHSSPNFGAIPSSTPVGSNTY-NH2
modifications: disulfide 2-7; N-terminus assumed
SMILES: CC[C@H](C)[C@H](NC(=O)[C@H](C)NC(=O)CNC(=O)[C@H](Cc1ccccc1)NC(=O)[C@H](CC(N)=O)NC(=O)[C@@H]1CCCN1C(=O)[C@H](CO)NC(=O)[C@H](CO)NC(=O)[C@H](Cc1c[nH]cn1)NC(=O)[C@H](CCCNC(=N)N)NC(=O)[C@H](CC(C)C)NC(=O)[C@H](Cc1ccccc1)NC(=O)[C@H](CCCCN)NC(=O)[C@H](C)NC(=O)[C@H](CC(C)C)NC(=O)[C@H](CCCNC(=N)N)NC(=O)[C@H](CCC(N)=O)NC(=O)[C@@H](NC(=O)[C@H](C)NC(=O)[C@@H]1CSSC[C@H](NC(=O)[C@@H](N)CCCCNC(=O)COCCOCCNC(=O)CC[C@H](NC(=O)CCCCCCCCCCCCCCCCCCC(=O)O)C(=O)O)C(=O)N[C@@H](CC(N)=O)C(=O)N[C@@H]([C@@H](C)O)C(=O)N[C@@H](C)C(=O)N[C@@H]([C@@H](C)O)C(=O)N1)[C@@H](C)O)C(=O)N1CCC[C@H]1C(=O)N[C@@H](CO)C(=O)N[C@@H](CO)C(=O)N[C@H](C(=O)N1CCC[C@H]1C(=O)N[C@H](C(=O)NCC(=O)N[C@@H](CO)C(=O)N[C@@H](CC(N)=O)C(=O)N[C@H](C(=O)N[C@@H](Cc1ccc(O)cc1)C(N)=O)[C@@H](C)O)C(C)C)[C@@H](C)O
notes: also called compound 74
Consider B5, for which, in assay [1], the “Ratio hCT/hAmylin binding” value was determined as 101. Also, the concentration for half-maximal inhibition (IC50) in assay [2] amounted to 79.9 nM.

B6: N^ε1-[2-[2-[2-[[(4S)-4-carboxy-4-(19-carboxynonadecanoylamino)butanoyl]amino]ethoxy]ethoxy]acetyl]-[Ser14,Arg17,Pro21,Pro27,Pro31]-h-amylin (peptide)
peptide: K([AEEA-γGlu-C20 diacid])CNTATCATQRLASFLRHSSPNFGAIPSSTPVGSNTY-NH2
modifications: disulfide 2-7; N-terminus assumed
SMILES: CC[C@H](C)[C@H](NC(=O)[C@H](C)NC(=O)CNC(=O)[C@H](Cc1ccccc1)NC(=O)[C@H](CC(N)=O)NC(=O)[C@@H]1CCCN1C(=O)[C@H](CO)NC(=O)[C@H](CO)NC(=O)[C@H](Cc1c[nH]cn1)NC(=O)[C@H](CCCNC(=N)N)NC(=O)[C@H](CC(C)C)NC(=O)[C@H](Cc1ccccc1)NC(=O)[C@H](CO)NC(=O)[C@H](C)NC(=O)[C@H](CC(C)C)NC(=O)[C@H](CCCNC(=N)N)NC(=O)[C@H](CCC(N)=O)NC(=O)[C@@H](NC(=O)[C@H](C)NC(=O)[C@@H]1CSSC[C@H](NC(=O)[C@@H](N)CCCCNC(=O)COCCOCCNC(=O)CC[C@H](NC(=O)CCCCCCCCCCCCCCCCCCC(=O)O)C(=O)O)C(=O)N[C@@H](CC(N)=O)C(=O)N[C@@H]([C@@H](C)O)C(=O)N[C@@H](C)C(=O)N[C@@H]([C@@H](C)O)C(=O)N1)[C@@H](C)O)C(=O)N1CCC[C@H]1C(=O)N[C@@H](CO)C(=O)N[C@@H](CO)C(=O)N[C@H](C(=O)N1CCC[C@H]1C(=O)N[C@H](C(=O)NCC(=O)N[C@@H](CO)C(=O)N[C@@H](CC(N)=O)C(=O)N[C@H](C(=O)N[C@@H](Cc1ccc(O)cc1)C(N)=O)[C@@H](C)O)C(C)C)[C@@H](C)O
notes: also called compound 73
For the molecule B6, the “Ratio hCT/hAmylin binding” value in assay [1] turned out to be 51.7. The 50% inhibitory concentration (IC50) in assay [2] is 5.38 nM.

The IC50 is the concentration that gives 50% inhibition.
